Km data for 1 substance are collected here from patent US20040052799A1, “Nucleic acid and amino acid sequences relating to Helicobacter pylori for diagnostics and therapeutics” (Astra Aktiebolag, priority 1996, published 2004).

The test system of the series is N[C@@H](CC=O)C(=O)O. As to the kind of experiment: purified protein, by the assay type. Conditions: other: pH 8.0.

Usually Km stands for the concentration of substrate that gives half-maximal velocity.

In the case of H. pylori Asd (Helicobacter pylori J99), the Km was 54 µM.
